Tested on: MS2 coat protein
Test: apparent KD of MS2 coat protein; designed switch direction (-1 OFF switch, 1 ON switch): 1; higher = weaker reporter binding
Procedure, shortened: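 For each design, the apparent KD is the median over clusters of curves fitted to normalised cluster fluorescence. Clusters held RNA switches with common flanks, transcribed on Illumina chips by stalled E. coli RNA polymerase. These were titrated with SNAP-549-labelled MS2 coat protein, doubling from 0.7 or 1.5 nM to 3 µM, without input, with 200 uM small-molecule ligand, or with an oligonucleotide input.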

[1] = Eterna round: R95, input ligand: FMN 200 uM
[2] = Eterna round: R95, input ligand: microRNA oligo, concentration not stated
[3] = Eterna round: R95, input ligand: none
[4] = input ligand: microRNA oligo, concentration not stated

| Sequence | apparent KD of MS2 coat protein [1] | apparent KD of MS2 coat protein [2] | apparent KD of MS2 coat protein [3] | apparent KD of MS2 coat protein (input ligand: FMN 200 uM) | apparent KD of MS2 coat protein [4] | apparent KD of MS2 coat protein (input ligand: none) |
| --- | --- | --- | --- | --- | --- | --- |
| UUUAGUUGCGGGCAGGAUAUGUAUUAAAGUACAUGAGGAUCACCCAUGUGCGGGUAUAACACCCGACAGAAGGGCCAAUCGCGAC [Laonerce - 1] (puzzle: Same State 2) | 17.7 nM | 64.3 nM | 115 nM | – | – | – |
| UGUUAACAUGAGGAUCACCCAUGUCAAAAGAAUCGAGGAUAUGGUAAGUAAUAAGAGAAUCUAGAAGGCGAAGUUG [Altered State 1-24 - Jieux - Same State 1] (puzzle: Same State 1) | 42.7 nM | 55.9 nM | 60.9 nM | – | – | – |
| AGCCGAGACACAGGAUAUACAUGUUUACAUGAGGAUCACCCAUGUAGCAACACGUGGUAGUGAUUGUAGAAGGGUGCUCGGCGC [Omei SS(NG)2 Cv12] (Eterna round: R96, puzzle: Same State NG 2) | – | – | – | 15.8 nM | 12.6 nM | 23.3 nM |
| ACAUGAGAUGGAGGAUAUUUUGUACCUACAUGUGACAUGAGGAUCACCCAUGUGGUAAGUAUGAGAAAGAAGGCCAAGAUAUGU [Equivalence 17 - Jieux - Same State NG 2] (Eterna round: R96, puzzle: Same State NG 2) | – | – | – | 17.6 nM | 18.4 nM | 28.5 nM |
| CGUUCUUACUCAGGACGGAGAGUAGAGGAACAUGAGGAUCACCCAUGUAUGAGCUUUUUGCUCGUGAUUAACAGUAG [JR_SHM208a_Sub013] (Eterna round: R96, puzzle: Sensor for hsa-mir-208a) | – | – | – | 103 nM | 55.5 nM | 86.8 nM |
| GCAGGACGAUAAAACAUCUCACAUGAGGAUCACCCAUGUCGUGAGGAUAUGGAUCCUAAUUGGAUCCAGAAGGCAUGGUCCUGC [Fiskers NG3ss - 24] (Eterna round: R96, puzzle: Same State NG 3) | – | – | – | 13.2 nM | 13.1 nM | 20.9 nM |
| AGGCUCAGAGCAGGAUAUACGUGGUCACAUGAGGAUCACCCAUGUCUCGAGCUUCGGCUCGAGGCGUAGAAGGGCUCUGAGCCA [SSNG2/6-B1] (Eterna round: R96, puzzle: Same State NG 2) | – | – | – | 140 nM | 204 nM | 330 nM |
| GAGGGAUGAGCGUAGGAUAUAGGAGAAGUGACAUGAGGAUCACCCAUGUGGUAUGAGGGAUGAUUCUAGAAGGACGCGGUAGAAG [JR_SS2_Sub063] (puzzle: Same State 2) | 149 nM | 399 nM | 373 nM | – | – | – |
| GCCAUCGCAUGAGGAUAUGGCACCGUUUCGGUGCCAGAAGGCAUGUCAUAAGACAUGAGGAUCACCCAUGUAGUUAAGAUGGCA [JL Fiskers NG1ss - 33 mod 8] (Eterna round: R96, puzzle: Same State NG 1) | – | – | – | 31.4 nM | 521 nM | 751 nM |
| CUCAAACAUGAGGAUCACCCAUGUUUUUUCAUGGGAGGAUAUCUAAGUUCAUUAUAUUCAGGAGAAGGCCUAUCUC [× ×•×ª×• ×ž×“×™× ×” × ×—×ª-06] (puzzle: Same State 1) | 54.5 nM | 36 nM | 30.3 nM | – | – | – |
| AUACUGUACCGAGGAUAUCCAUUUUUCUAACAUGAGGAUCACCCAUGUGAAGGGAUUGAGUUGUAGGAGAAGGCGGUAUAGUAU [JR_SSNG2_Sub062] (Eterna round: R96, puzzle: Same State NG 2) | – | – | – | 14.8 nM | 11.6 nM | 21.5 nM |
| AAACGGGCUACAGGAUAUGCUCGAUAAACUUCAGUAGAAGGGUGGCCUUAUCAACGAACAUGAGGAUCACCCAUGUUCUACAAC [Dianrisole] (Eterna round: R96, puzzle: Same State NG 1) | – | – | – | 77.2 nM | 28.3 nM | 136 nM |
| GGCAGGUGCAGGCUUGCUUGCACCUGGAAACAUGAGGAUCACCCAUGUUUGGGACAAGCUUUGCUCCUCGUUUUGUC [JL ViennaUCT Isusreraar mod 3] (puzzle: Sensor for hsa-mir-208a) | 209 nM | 133 nM | 288 nM | – | – | – |
| CUAAAACAUGAGGAUCACCCAUGUCAACAAAGUCGAGGAUAUGGGCAAAUAAAAUAAGAACCAGAAGGCGAAUAAU [salish99_SS1_r3_012] (puzzle: Same State 1) | 42.3 nM | 422 nM | 485 nM | – | – | – |

From the supplement of paper PMC9170038
